The target in one data set is αvβ6 integrin (Homo sapiens, UniProt P06756+P18564). To be noted: cited from earlier work.
A further data set addresses α5β1 integrin (Homo sapiens, UniProt P05556+P08648). To be noted: cited from earlier work.
For the next data set, the target named is αvβ3 integrin (Homo sapiens, UniProt P05106+P06756). To be noted: cited from earlier work.
In a further data set the target is αvβ5 integrin (Homo sapiens, UniProt P06756+P18084). To be noted: cited from earlier work.
Another data set deals with subcutaneous MB49 tumors. Nature of the data set: Subcutaneous syngeneic bladder cancer mouse model. Format: in vivo, C57BL/6 mice. The source says: (§1) Studies on animal models were approved by the Institutional Animal Care and Use Committee (Institutional Animal Care and Use Committee, IACUC) and performed according to the prescribed guidelines. C57BL/6 female mice (7 weeks old, Charles River, Calco, Italy) were challenged with subcutaneous injection in the left flank of 3-5×10^5 MB49 living cells; 5 days later, 4-6 mice/group were intravenously administered with various doses of RGD-SAP or CYS-SAP diluted in sodium chloride (0.9%, i.v., 200 μl). Tumor growth was estimated by calculating the volume using the formula r1×r2×r3×4/3 π, where r1 and r2 are the longitudinal and lateral radii, and r3 is the thickness of tumors protruding from the surface of normal skin. Animals were euthanized when tumors reached 10 mm in diameter, became ulcerated or a 15% animal body weight loss was measured.

Data set [1] relates to caspase 3 in 5637 and MDA-MB-468 cells. Nature of the data set: Caspase 3 activation (western blot). Particulars: 30 nM, 48 and 72 h. The format is cell-based, human. On the procedure: Cells were washed twice with cold PBS, collected by scraping and centrifuged 5 min at 300 g. Cells were lysed for 30 min on ice in ice-cold buffer (50 mM Tris-HCl, pH 7.5, containing 150 mM NaCl, 2 mM NaF, 1 mM EDTA, 1 mM EGTA, 1 mM Na3VO4, 1 mM PMSF, 75 mU/ml aprotinin (Sigma-Aldrich), 1% TritonX-100 and a proteinase inhibitor Cocktail® (Sigma-Aldrich). Cell lysates were centrifuged at 10000×g at 4° C. for 10 min and the supernatants were recovered and quantified for total protein content. Equal amounts of cell protein extracts were separated by SDS-PAGE under reducing conditions unless stated otherwise. For western blot analysis, proteins were transferred onto a nitrocellulose membrane, incubated with 5% non-fat powdered milk in TBS-T (0.5% Tween-20) for 1 hour and then with the following antibodies: anti-saporin anti-serum (rabbit, 1:5000), anti-caspase 3 (rabbit, 1:2000, clone E87, Abcam), anti-beta actin (mouse, 1:10000, clone AC-15, Sigma-Aldrich). The antibody binding was detected using a secondary horseradish peroxidase conjugated antibodies (donkey anti-mouse/rabbit IgG HRP-linked, GE Healthcare) and an enhanced chemiluminescent (ECL, Merck Millipore).
To induce caspase 3 activation, cells were treated with 30 nM RGD-SAP or 2 mM DTT for 48 and 72 hours.

In data set [2] the test system is 5637, RT112, RT4, U87, MDA-MB-468 cancer cell lines. Nature of the data set: Cell viability assay (MTT), cancer cell lines. The format is cell-based, human. On the procedure: (§2) Cultured cell lines (5×10^3 cells/well) were seeded in 96 wells plates and incubated for 72 h with various amounts of RGD-SAP or CYS-SAP at 37° C., 5% CO2. Cell viability was then quantified by 3-(4,5-dimethylthiazol-2-yl)-2,5-diphenyltetrazolium bromide staining (MTT) (working solution 0.5 μg/ml). After 1 h of incubation, the supernatants were removed, the formazan crystals were dissolved with dimethyl sulfoxide and the absorbance at 570 nm was measured using a microtiter plate reader. Competitive experiments were performed as described above using 100 nM of RGD-SAP or 1000 nM of CYS-SAP in the presence of 5000 nM of ACDCRGDCFCG peptide for 48 and 72 hours.
(§3) Cultured cell lines (5×10^3 cells/well) were seeded in 96 wells plates and incubated for 72 h with various amounts of NGR-SAP, RGD-SAP, CgA-SAP, CYS-SAP, ATF-SAP or seed SAP at 37° C., 5% CO2. Cell viability was then quantified by 3-(4,5-dimethylthiazol-2-yl)-2,5-diphenyltetrazolium bromide staining (MTT) (working solution 0.5 μg/ml). After 1 h of incubation, the supernatants were removed, the formazan crystals were dissolved with dimethyl sulfoxide and the absorbance at 570 nm was measured using a microtiter plate reader.

The next data set has as its system normal fibroblasts. In words: Cell viability assay (MTT), normal fibroblasts. Format: cell-based. To be noted: 72 h. The protocol:
as §2, §3

Data set [3] concerns 5637 bladder cancer cells. Nature of the data set: MTT competition experiment with free RGD-4C peptide. Format: cell-based, human. Particulars: 0.1 μM RGD-SAP or 1 μM CYS-SAP, 5 μM peptide, 48 and 72 h. The protocol: as §2
Data set [4] is described as follows: Toxicity in the subcutaneous model (body weight, injection site, serum biochemical parameters). Format: in vivo, C57BL/6 mice.
Excerpt: as §1
Blood samples were collected from the retroorbital plexus of anesthetized mice using 4% isoflurane at the end of each experiment or before animal sacrifice. Blood samples were left at room temperature for at least 30 min before being processed and then centrifuged (800×g, 10 min) for serum separation. Serum albumin, aspartate transaminase, alanine transaminase, creatinine and urea were determined by using an automated analyzer (ScilVet ABC plus and Idexx Procyte analyzers) according to the manufacturers' instructions. Standard controls were run before each determination.

The text below walks through data of patent US20250215411A1, “FUSION PROTEINS AND USES THEREOF” (priority 2022, published 2025).

Chain of αvβ3 integrin (P06756 31-1048): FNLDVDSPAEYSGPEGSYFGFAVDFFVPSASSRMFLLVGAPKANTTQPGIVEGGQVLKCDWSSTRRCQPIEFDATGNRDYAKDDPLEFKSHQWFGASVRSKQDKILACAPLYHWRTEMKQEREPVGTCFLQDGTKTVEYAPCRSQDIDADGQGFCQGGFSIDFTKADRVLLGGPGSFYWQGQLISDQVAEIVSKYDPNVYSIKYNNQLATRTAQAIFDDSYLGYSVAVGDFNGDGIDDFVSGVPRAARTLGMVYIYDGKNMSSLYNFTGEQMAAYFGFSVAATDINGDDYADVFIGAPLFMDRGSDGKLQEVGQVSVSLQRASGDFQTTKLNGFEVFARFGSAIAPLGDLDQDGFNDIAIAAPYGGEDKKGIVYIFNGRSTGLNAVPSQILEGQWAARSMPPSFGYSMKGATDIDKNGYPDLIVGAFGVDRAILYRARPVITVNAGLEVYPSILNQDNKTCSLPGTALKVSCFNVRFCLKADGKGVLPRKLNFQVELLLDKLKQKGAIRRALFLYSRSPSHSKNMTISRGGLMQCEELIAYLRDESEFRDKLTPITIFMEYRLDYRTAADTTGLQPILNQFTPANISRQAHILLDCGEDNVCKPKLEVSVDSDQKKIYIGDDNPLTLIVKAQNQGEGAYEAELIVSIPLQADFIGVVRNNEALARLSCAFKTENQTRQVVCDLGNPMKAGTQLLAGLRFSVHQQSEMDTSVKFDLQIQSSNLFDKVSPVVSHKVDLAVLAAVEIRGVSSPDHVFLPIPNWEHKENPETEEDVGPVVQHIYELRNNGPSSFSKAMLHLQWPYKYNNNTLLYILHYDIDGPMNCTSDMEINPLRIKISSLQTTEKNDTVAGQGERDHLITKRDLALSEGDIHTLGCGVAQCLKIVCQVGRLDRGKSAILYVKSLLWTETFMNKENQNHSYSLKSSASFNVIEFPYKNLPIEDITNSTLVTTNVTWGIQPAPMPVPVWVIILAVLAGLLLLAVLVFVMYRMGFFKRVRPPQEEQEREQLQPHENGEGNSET
Chain of αvβ3 integrin (P05106 27-788): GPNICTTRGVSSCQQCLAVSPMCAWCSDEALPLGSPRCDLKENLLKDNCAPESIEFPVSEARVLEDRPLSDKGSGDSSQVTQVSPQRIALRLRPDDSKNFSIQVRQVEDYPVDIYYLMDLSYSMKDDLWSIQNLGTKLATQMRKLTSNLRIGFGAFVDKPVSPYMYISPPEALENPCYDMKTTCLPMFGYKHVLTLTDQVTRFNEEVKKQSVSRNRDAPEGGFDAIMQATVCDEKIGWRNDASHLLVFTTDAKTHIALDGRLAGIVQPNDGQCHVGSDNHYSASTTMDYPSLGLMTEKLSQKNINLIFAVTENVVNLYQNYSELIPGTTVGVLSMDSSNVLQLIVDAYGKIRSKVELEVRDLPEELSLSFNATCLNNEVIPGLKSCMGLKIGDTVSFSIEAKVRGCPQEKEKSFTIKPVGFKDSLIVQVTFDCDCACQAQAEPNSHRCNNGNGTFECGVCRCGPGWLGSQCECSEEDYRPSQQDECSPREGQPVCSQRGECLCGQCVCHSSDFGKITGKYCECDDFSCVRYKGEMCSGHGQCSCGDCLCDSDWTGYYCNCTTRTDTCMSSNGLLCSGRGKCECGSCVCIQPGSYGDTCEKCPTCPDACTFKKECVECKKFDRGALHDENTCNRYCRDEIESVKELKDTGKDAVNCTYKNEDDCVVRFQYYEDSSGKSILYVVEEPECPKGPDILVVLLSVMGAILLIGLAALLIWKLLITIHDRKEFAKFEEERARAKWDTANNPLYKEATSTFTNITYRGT
Chain of αvβ6 integrin (P06756 31-1048): as the sequence (P06756 31-1048) above
Chain of αvβ6 integrin (P18564 22-788): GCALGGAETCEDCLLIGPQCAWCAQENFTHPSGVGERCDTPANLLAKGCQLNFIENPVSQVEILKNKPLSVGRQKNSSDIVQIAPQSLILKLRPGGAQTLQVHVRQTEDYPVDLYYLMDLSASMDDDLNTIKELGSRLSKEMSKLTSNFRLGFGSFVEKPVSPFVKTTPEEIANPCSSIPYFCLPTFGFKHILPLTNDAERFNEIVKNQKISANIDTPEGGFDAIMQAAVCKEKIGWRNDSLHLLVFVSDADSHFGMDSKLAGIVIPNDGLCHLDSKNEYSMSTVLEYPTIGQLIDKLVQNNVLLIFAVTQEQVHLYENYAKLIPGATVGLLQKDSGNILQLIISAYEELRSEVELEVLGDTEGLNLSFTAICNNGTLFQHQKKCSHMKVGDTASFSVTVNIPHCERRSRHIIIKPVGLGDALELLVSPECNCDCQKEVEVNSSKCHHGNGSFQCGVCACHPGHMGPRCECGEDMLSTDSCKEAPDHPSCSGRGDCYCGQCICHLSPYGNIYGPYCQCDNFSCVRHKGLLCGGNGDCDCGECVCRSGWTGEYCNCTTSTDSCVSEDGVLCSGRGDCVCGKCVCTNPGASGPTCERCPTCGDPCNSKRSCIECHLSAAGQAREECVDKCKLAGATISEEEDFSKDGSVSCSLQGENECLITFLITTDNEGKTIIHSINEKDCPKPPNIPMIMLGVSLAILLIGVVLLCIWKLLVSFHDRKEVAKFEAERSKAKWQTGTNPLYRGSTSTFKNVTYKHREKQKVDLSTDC
Chain of αvβ5 integrin (P06756 31-1048): as the sequence (P06756 31-1048) above
Chain of αvβ5 integrin (P18084 24-799): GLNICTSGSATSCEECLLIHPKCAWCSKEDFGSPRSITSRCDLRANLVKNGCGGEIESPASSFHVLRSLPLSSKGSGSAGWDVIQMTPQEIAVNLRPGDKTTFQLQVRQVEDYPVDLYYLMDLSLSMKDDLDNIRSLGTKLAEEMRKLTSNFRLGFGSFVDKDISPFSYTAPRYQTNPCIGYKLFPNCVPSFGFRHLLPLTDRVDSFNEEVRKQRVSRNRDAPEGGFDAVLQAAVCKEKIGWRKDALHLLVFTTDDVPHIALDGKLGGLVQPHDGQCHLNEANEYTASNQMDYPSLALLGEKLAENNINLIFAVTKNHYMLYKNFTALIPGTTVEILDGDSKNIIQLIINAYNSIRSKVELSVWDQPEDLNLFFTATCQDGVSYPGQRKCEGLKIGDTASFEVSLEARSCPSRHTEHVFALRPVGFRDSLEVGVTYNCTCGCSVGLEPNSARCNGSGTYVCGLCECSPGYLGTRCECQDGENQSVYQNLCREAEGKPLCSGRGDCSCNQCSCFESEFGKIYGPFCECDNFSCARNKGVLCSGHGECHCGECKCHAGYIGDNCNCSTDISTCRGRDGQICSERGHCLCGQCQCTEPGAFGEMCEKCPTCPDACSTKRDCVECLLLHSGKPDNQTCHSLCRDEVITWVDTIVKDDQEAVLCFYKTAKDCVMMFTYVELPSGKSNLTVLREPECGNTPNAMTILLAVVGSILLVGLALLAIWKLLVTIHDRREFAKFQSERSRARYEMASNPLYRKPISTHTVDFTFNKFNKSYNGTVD

On to “RGD-4C: ACDCRGDCFCG peptide (SEQ ID NO: 2), an αv-integrin ligand”, for which the affinity value with αvβ6 integrin is on record as 380 nM; with α5β1 integrin, 244 nM; with αvβ3 integrin, 8.3 nM; in the data set with αvβ5 integrin, 46 nM.

B1: RGD-SAP: RGD-4C (ACDCRGDCFCG) fused via GGSSRSS linker to N-terminus of saporin, C-terminal VDK and 6xHis tag; SEQ ID NO: 6 (protein)
chain: ACDCRGDCFCGGGSSRSSVTSITLDLVNPTAGQYSSFVDKIRNNVKDPNLKYGGTDIAVIGPPSKEKFLRINFQSSRGTVSLGLKRDNLYVVAYLAMDNTNVNRAYYFKSEITSAELTALFPEATTANQKALEYTEDYQSIEKNAQITQGDKSRKELGLGIDLLLTFMEAVNKKARVVKNEARFLLIAIQMTAEVARFRYIQNLVTKNFPNKFDSDNKVIQFEVSWRKISTAIYGDAKNGVFNKDYDFGFGKVRQVKDLQMGLLMYLGKPKVDKHHHHHH
Regarding B1, the “effect on tumor growth” value in the data set on subcutaneous MB49 tumors (0.25 mg/kg i.v., days 5, 10, 15) is given as “but not 0.25 mg/kg”; in the data set on subcutaneous MB49 tumors (0.5 mg/kg i.v., days 5, 10, 15), “significant delay of tumor growth”; with subcutaneous MB49 tumors (0.75 mg/kg i.v., days 5, 10, 15) it was “significant delay of tumor growth”; in the data set on subcutaneous MB49 tumors (1 mg/kg i.v., three times every five days from day 5), “marked reduction of the tumor volume in all mice”. Besides, the “survival, hazard ratio versus vehicle” value in the data set with subcutaneous MB49 tumors (0.75 mg/kg, Mantel-Cox log-rank, 95% CI 1.19-23.10) was 5.25. Besides, in the data set on subcutaneous MB49 tumors (1 mg/kg i.v., end of experiment day 19, n=4), the complete tumor eradication was 1 tumor undetectable and complete eradication in one mouse. In [1], the “caspase 3 activation” value is recorded as “caspase 3 activation was detectable as cleaved form”. The “cytotoxic effect compared to CYS-SAP” value is recorded as “stronger cytotoxic effect” in [2] (MTT, 72 h, all cancer cells) and “but not with normal fibroblasts” in the data set with normal fibroblasts. Also, the “sensitivity of U87 cells compared with the other cell lines” value in data set [2] (U87, highest amount of αvβ3) is on record as “most sensitive”. The “effect of excess free RGD-4C peptide on cytotoxic activity” value in data set [3] is reported as “significantly decreased the activity”. Further, the “serum AST and CHE versus vehicle” value in data set [4] (1 mg/kg) is listed as “significantly higher values”. In addition, the body weight result in data set [4] (1 mg/kg i.v., day 19) was “loss of body weight”; in data set [4] (0.75 and 0.5 mg/kg i.v., days 5, 10, 15) it was “without causing loss of body weight”. Also, the injection site reaction result in [4] (1 mg/kg i.v., tails) is “severe necrosis in the tails”. Further, the “systemic toxicity (liver and kidney serum parameters)” value in data set [4] (0.25-1 mg/kg) was “dose dependent and apparent only with the highest dose used”.
